Paper PMC9050902 (Journal of molecular biology, 2022)

Target: LC8 (as used with syn-4mer) ( (S. cerevisiae or D. …, UniProt Q24117 1-89))
Experiment: ITC

LC8 (as used with syn-4mer) (, sequence (Q24117 whole entry): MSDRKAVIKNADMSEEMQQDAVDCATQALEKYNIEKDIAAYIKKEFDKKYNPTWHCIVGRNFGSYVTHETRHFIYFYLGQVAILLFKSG

Kd: ~40 nM
B1: synthetic four-site IDP (syn-4mer) (designed binder)
chain: GSYGSRKAIDAATQTEPKETRKAIDAATQTEPKETRKAIDAATQTEPKETRKAIDAATQTEGSYGS
